The target of the series is RAD51 (UniProt Q06609 1-339). Kind of series: EMSA; 1 mM Mg2+, 1 mM ATP; highest affinity, unbound band gone at lowest RAD51 (1.5 uM); RAD51 EMSA: 50 mM Tris-HCl pH 7.5, 50 mM KCl, 1 mM MgCl2, 1 mM ATP, 37 C 10 min; 0.8% TBE agarose + 10 mM KCl at 4 C. Single molecule: T50 (10 mM Tris-HCl pH 7.5, 50 mM NaCl); imaging 10 mM Tris-HCl pH 7.5, 100 mM NaCl, 10% glycerol. Supplementary Table 2 kd values are for TERRA/DNA annealing to (protein-bound) duplex, not …. The following applies: protein: recombinant; label: Cy3; G4, single strand. Background: In EMSA bound probe runs differently from free probe, usually more slowly.
Chain of RAD51 (Q06609 whole entry): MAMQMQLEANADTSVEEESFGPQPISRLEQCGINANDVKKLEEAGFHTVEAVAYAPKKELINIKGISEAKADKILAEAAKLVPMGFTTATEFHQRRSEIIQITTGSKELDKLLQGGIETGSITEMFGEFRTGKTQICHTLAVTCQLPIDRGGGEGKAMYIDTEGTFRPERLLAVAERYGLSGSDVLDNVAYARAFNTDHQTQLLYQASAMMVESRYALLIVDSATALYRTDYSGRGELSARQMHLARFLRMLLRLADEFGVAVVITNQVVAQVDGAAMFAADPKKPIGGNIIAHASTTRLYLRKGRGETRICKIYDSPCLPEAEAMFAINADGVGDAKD

In the case of UGGCGACGGCAGCGAGGCUUAGGGUUAGGGUUAGGGUUAGGG (structured_RNA) [TERRA-18], the binding result is “binds”.

(Values after PMC11417404, “The molecular mechanism for TERRA recruitment and annealing to telomeres”.)
